Results as given in a protein production outcome set (Wang et al. 2014).

Assay: label from the status in PepcDB records
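Note: failed if final PepcDB status was selected cloned or expressed and not failed if soluble or beyond.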

Sequence	protein production
MCTSLTLETKNGQHLFARTMDFTLDMNQEVIIIPRHYQWNNITGEIINTKHATVGMGINHQGRIIMADGVNEAGMTCATLYFPGFATYSQSIDDNTTNLAPFDFVTWSLTQFNSVKELKKSVDSITFLDIPLPDLGLTPPLHWILADKWGDCIVLDPTSEGLKLYDNPLGVMTNSPEFNWHLQNLRQYIGLKSQPFAPTEWSNLPLSAFGQGSGSMGLPGDFTPPSRFVRAAYGKQNIQGIDSEEEGVSALFHILSNCEVPKGGVITEEGALDNTIYTSVMCMESGTYYYHTYDCRQIIAVHLFHENLDTDEIKAYPFQRKQKIFYEN	failed
MCYHLIIDSFIDRISRMHTQRGLEVTTGSIEAVDSINYFHEQVLSSGQNAIQILDSAKKHTDNLLIQTYAAAFYLYAQEDVANEQASDYLQSAFRLLTSANEREKLIFEAVTNWSKRDYANAISLLVTLLERYPRDTLALKFMEWLFYCTGQAFNAEYFLKVCDKCAPENQDESHFLAIHSFALELCGQYSKAKEMAEEAITMNLLTPWAHHTLAHVHLLTSDITGGINRLRDLQKTWEDILPLLKGHNTWHLALFYLANRNEEEVKKLYPHISGALPDTVLEQLDTISLLWRMDMAGLPQDRLLNQVVDHLSTHPLEYYTGFTNAHFIYCLVKSGYKNEADESLKRMKFYACSPSSDALWGDVVLPLCQGIYAFADADYKTALMLMEPVIGECAQLGGSDAQIELFFQTYLLVLIHNKQKDKALQFFTEHLKYYNNTPLSDWWFQSANKA	failed
MDAAVVGGGPAGSLAAILLGKSYDVALFEEHQSAGFPVQCAGLVSDKCYKKLKEHCKAEKAIENHIKGAFFFSPSGKIVLEGRGEAVVVERKILDRLLFERAAERAKVFVKEKARLNGFRIITPSREVSAEKIIGADGVNSTVREHFGFPTMGFFTAVQVEAKFEPLDENCVELYFGGNWSDSFFAYAIPLGDTARIGVVSRSSPLRYLENLMKRHPSVSGRVEGSAVELNAGAIPDRLVKFSKRDVALIGDAAGMVKPYTGGGLYYHLIAAEKLAESFPDLKGYEKSYLKEMGREYRFGYAVRKLYSLPDEKLEQLFSAMADFDFRGVHMDSPSTLIRKAADISFRLLRKPSLAFYLVKSLFLLEHHHHHH	failed
MDAIRIVLKNISQVLLLNNAWTGLFILLGLFIGSWKVGVMALIASVIALLLAKRTNYSEEEINTGLSGFNPVLTAIALTLFLVPKWYSLIIILVAIIITMPIGSAFREFFKPFGVPMLTMPYVFVSWLILLMSFQFKFVNADVNILPNAIQEIQFSGHHIQFINAFLSGFSEIFLLKSVLAGTLILIGIFIASRKAGVYAIVANLIGFLAVIVLGANHDQINEGLFGYNVILTVLALGIAFRTRIQRPISIVLGILLTVVIHAGMTTLLTPYGLPVFTLPFIIATWIMLFAGNQMKAQEI	failed
MDALEIFKTLFSLVMRFSSYLPSNEEISDMKTTELYAFLYVALFGPKKMKEIAEFLSTTKSNVTNVVDSLEKRGLVVREMDPVDRRTYRVVLTEKGKEIFGEILSNFESLLKSVLEKFSEEDFKVVSEGFNRMVEALSREGR	not failed
MDALVEDDICILNHEKAHKRDTVTPVSIYSGDESVASHFALVTAYEDIKKRLKDSEKENSLLKKRIRFLEEKLIARFEEETSSVGREQVNKAYHAYREVCIDRDNLKSKLDKMNKDNSESLKVLNEQLQSKEVELLQLRTEVETQQVMRNLNPPSSNWEVEKLSCDLKIHGLEQELELMRKECSDLKIELQKAKQTDPYQEDNLKSRDLQKLSISSDNMQHAYWELKREMSNLHLVTQVQAELLRKLKTSTAIKKGKSLFTGNH	not failed
MDASTSFAILPSNVKQKTAFPRKINQVKTASWANNCLTGTLDVGHFSCYFVNEKIARVTVNPFGEADLTPSIAAINDTEKQAAVFTETNDHYELQFADKKLIVSKNPFQIIMKQAGKTIFQTEGLAINRDKEHQISIQSKPGTAIFGLGEKTGALNKAGSIISMWNTDVYSPHNKDTVELYQSIPFMIADTEETTYGLFYDNSHRTEFDFQSFEEMYTILAEGGQANLYVIFGEDVKEVVANYTNLTGKTPLPPKWSLGYHQSRYSYTSEEEVERIANTFKEKEIPLDCVFMDIHYMDDFRVFTFNPDTFPNGPELIARLREQNIDVVPIVDPGIKKDVNYSVYQEGIKHHYFCRKLEGAIYYGDVWPGVSAFPDFLSTTVQRWWGDLHQFYTDLGIRGIWNDMNEPSVFNESKTMDLDVVHNMDGKNVTHKEAHNLYGLYMSKATFEGLKRLVPNERPFSLTRAGYAGVQRYSAVWTGDNRSHWEHLEMSLPMIMNLGLSGVAFTGADVGGFSSDCTKEMLIRWTQAGAFLPYFRNHCVQDSIYQEPWAFGLDAEKIVKKYIEMRYTFLPYIYTEFQKTAENGLPIVRPLYMEFKEERDLIQVNDQFMLGENILVAPIVREGQVKRLVRLPKGTWFNYWTKEQVEGGDYIIADAPIDVMPIYIKAGTILPLGTSVQNTKEAQDLALEIYLDNDEASGYVYNDDGKSYQYESGKISKTAFTATFKNGEVQINGDHHGEENLQQKVTTIEVFGKKIDKITRAGI	failed
MDATMVFKRLLGSLGVGAPTVDTVLDPAPVLPGGTLTGQVHLEGGQTDFDIEHITLELVARVEAEHEDGEDEGVVVFDRFTVGGGFRLGAEEPRSVPFRVTLPWETPITELYGQPLGIVLGVRTELAVADAKDKGDLDQLTVTALPVQEAVLEAFGQLGFGFGSADLEYGHIGGTGQQLPFYQEIELVPAPQYADRLNEIELTFLAGPGGLEVVLEADKRGGLLSSGHDAVTRFSVGHHDARDWAAEVEGWVRQLVEHHTTYGAPGTHGHSTPYAGHGHHDPHGNGGRHHDDHRSGPGVGTAVAAGAAGLAVGVVGGMVAAEVVDEVGDFFEGDDEEEDEG	not failed
MDDDPHFDQNVQTVIAKTEAYITESVKAGGTGRALRDAHAKGYGLVRGEVEILDGLPPEYAQGIYATPGTHDALIRFSNGSPHAGADARLGAATGLALKIFDIPGPTLLEDEPDTGTFDYANINGPIFFCNTVEHYLFIQELFLNAPAYFSQGRPGAHRFFTDFVTGKGTLDQDDWAWDEFLAFLRLSKTPPANLLLSSYWTMGAVRHGDYIAKVRITPDPSFAAAVVRRDIDPTSAQEVFRPALEAELQERPYAFDIQVQLCTDLERMPVEDTTVEWPEQLSPSVTVAKLRLPRQDISGPENLEKMDSLSFTPWRVTAEHAPLGNIMRSRKEVYRQSSMELEHHHHHH	failed
MDDERTVRSEVHVVVEDGEIVAIEDGYASGDEVVDATEEVVIPGLVNCHTHMYALPIRGAPLAASPESFYEALVDIWWNVDEAFTERDARLSALGSSVEMLQSGVTTFCDNYSGPNTLPGGLDAVAEGVAQTPIRGMITFETTARNSEAQARDGIAENQRFIDEAEDQYDTVSGHYCLHTLFTNTEDIVAECVDRATDDNRPIQIHLEEGLVDVHESIADYGERPVFALEDMGFFDAEVIAAHCVHSTESEIEVLAEHDVNVAHNPYSNINNAVGIADVETMQAHEMTIGLGDDGWDPDMFETMRSAVGIHKLKQRNPSGFDMATALEWATIGSAAVLGMDDAVGSIEVGKRGDFVTLDLGPNPVLDGSAPYYVVSAASRADVTRTIIDGESVYDQQSGVTGVDDSDMTAVGDASAELWERL	failed
MDDIRCAIIIDPDLPPGVIANTAAVLAMSLGKRHPELVGQDLPDARGQPRQGITTVPIPVLKGGADQLRALRAAASETGLTLVELTSATRFTRSYQEYAAALAATPEEMVEYQGLALCGPGKRVRQLTGSLGLLRLEHHHHHH	failed
MDDLASQSFPEPERAIMKATYQVLCEYGYADLTIQQIADEYGKTTTAVHYHCDTKNKLLTAFLDYLLEELADSVHNIRTTNPENRLKFLLDELLVKSKNEPVLSIALLEMQSQTPYKEPFRERFKQMAVVNRQTELDFTVSETA	failed
MDDLIRLLEEMGIPFAYDHFAEGESPDPPFICYLLPQSDNFSADGKVYLKVSSVNIELYTDCKDLSVEQKLEAVLDTHGIFYDKTKVWIESEKLYEVLYSFEMEVLEHHHHHH	failed
MDDQGCPRCKTTKYRNPSLKLMVNVCGHTLCESCVDLLFVRGAGNCPECGTPLRKSNFRVQLFEDPTVDKEVEIRKKVLKIYNKREEDFPSLREYNDFLEEVEEIVFNLTNNVDLDNTKKKMEIYQKENKDVIQKNKLKLTREQEELEEALEVERQENEQRRLFIQKEEQLQQILKRKNKQAFLDELESSDLPVALLLAQHKDRSTQLEMQLEKPKPVKPVTFSTGIKMGQHISLAPIHKLEEALYEYQPLQIETYGPHVPELEMLGRLGYLNHVRAASPQDLAGGYTSSLACHRALQDAFSGLFWQPS	not failed
MDDVGRYQCLAVNEMGTVKKVVTVVLQSAPVFQVEPRDVTVRSGVDVELRCRATGEPVPTIEWLRAGRPLQAGRKLRALPDGSLWLEHVEAGDAGVYECVAHNRLGSVTAKALLAVRGEPRGSRGSMTGVINGQEFGMATLNISVLQQGSSEAPTIWSSISHVPASVGPLMRVLVVTIAPIYWALARESGEALNGYSLTGGSFQQESQMEFSTGELLTMTQVARGLDPDGLLLVDMKINGMIPESLADGDLRVQDFQEHYVQTGPGQLFAGSTQRFLHDSLPASLRCNHSIQYDETRGLQPQLVQHLRASSISSAFDPEAEALNFQLTTALQTEENEVGCPEGFEPDVQGAFCVDKDECSGGPSPCSHTCRNAPGHFSCSCPTGFSLAWDHRNCRDVDECAGDTHLCQEEQRCVNLLGSYNCLASCRPGFRVTADGSNCEDVDECLEQLDECHYNQLCENTPGGHHCGCPRGYRQQGHSLPCLDINECLQLPTPCVYQCQNLQGSYRCLCPPGQTLLRDGRTCIPLERNRQNITIVSHRSPFGPWLRSRVPRPSSSYHTWVSLRPGSGALNSVGRAWCPPGFIRQDGVCADLDECRVRSLCQHACQNTEGSYYCLCPSGYRLLPSGKNCQDINECEEDGIECGPGQMCFNTRGSFQCVDTPCPTTYRQGSSPGTCFRRCSQDCSASGPSTLQYRLLPLPLGVRAHHDVARLAAFSEAGIPANRTELTVLEPDPRSPFALRQLRAGQGAVYTRRALTRAGLYRLTVRAAAPRHQSVYILLIAVSPYPY	failed
MDDWRRFAQQMASLARDLLSQESLHDTLDRITASATELVEDCDAAGILILRGTKVQSLAPTEQVVIDSDALQGRVGEGPCFDAARSGTGERQFRIADFTDEAQRWPKYVPEARKLNLGSMMGFLLFTEDEDLGALNMYSYRPGAFTEADETAGWLLASHAAVAFSSARTHAQMQEAIGTRHIIGEAMGILMGRHRMSEDQAFAALRRYSQDHNVKLRNVAAQVCERGGLPEPTDKR	failed
MDDYSLDEFRRRWQEELAQAQAPKKRRRPEAAERRARRPEVGSGRSEQASGDPALAQGLLEGAGRPPAARATRAEGQDVASRSRSPLAREGAGGGEQLVDQLIRDLNEMNDVPFFDIQLPYELAINIFQYLDRKELGRCAQVSKTWKVIAEDEVLWYRLCQQEGHLPDSSISDYSCWKLIFQECRAKEHMLQTNWKNRKGAVSELEHVPDTVLCDVHSHDGVVIAGYTSGDVRVWDTRTWDYVAPFLESEDEEDEPGMQPNVSFVRINSSLAVAAYEDGFLNIWDLRTGKYPVHRFEHDARIQALALSQDDATVATASAFDVVMLSPNEEGYWQIAAEFEVPKLVQYLEIVPETRRYPVAVAAAGDLMYLLKAEDSARTILYAHGPPVTCLDVSANQVAFGVQGLGWVYEGSKILVYSLEAGRRLLKLGNVLRDFTCVNLSDSPPNLMVSGNMDGRVRIHDLRSGNIALSLSAHQLRVSAVQMDDWKIVSGGEEGLVSVWDYRMNQKLWEVYSGHPVQHISFSSHSLITANVPYQTVMRNADLDSFTTHRRHRGLIRAYEFAVDQLAFQSPLPVCRSSCDAMATHYYDLALAFPYNHV	failed
